Laboratory results from patent publication US20240085427A1 (published 2024).

Experiments:
[1] = target: T1, Anterior Gradient 2 (AGR2) (UniProt O95994 21-175); test: ELISA
T1 chain: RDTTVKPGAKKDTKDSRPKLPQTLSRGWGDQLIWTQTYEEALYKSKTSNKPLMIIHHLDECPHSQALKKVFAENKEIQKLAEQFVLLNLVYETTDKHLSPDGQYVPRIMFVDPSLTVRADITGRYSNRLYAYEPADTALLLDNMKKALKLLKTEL

[2] = target: Anterior Gradient 2 (AGR2) (UniProt O95994); test: cell-based or functional assay
[3] = target: T2, Anterior Gradient 2 (AGR2) (UniProt O95994 21-175, limits assumed); test: cell-based or functional assay
T2 sequence (looked up): T1 chain

[4] = target: T2, Anterior Gradient 2 (AGR2); test: ELISA and SPR (so in the source); purified scFv on AGR2
[5] = target: T1, Anterior Gradient 2 (AGR2); test: BLI (Octet)
[6] = target: T2, Anterior Gradient 2 (AGR2); test: ELISA and SPR (so in the source); the same KD in mass units
[7] = target: T3, bovine serum albumin (BSA) (bovine, UniProt P02769 25-607); test: ELISA on coated plates (FIG. 6A)
T3 construct: Control coating in ELISA; also called control (BSA)
T3 sequence (P02769 25-607 limits assumed): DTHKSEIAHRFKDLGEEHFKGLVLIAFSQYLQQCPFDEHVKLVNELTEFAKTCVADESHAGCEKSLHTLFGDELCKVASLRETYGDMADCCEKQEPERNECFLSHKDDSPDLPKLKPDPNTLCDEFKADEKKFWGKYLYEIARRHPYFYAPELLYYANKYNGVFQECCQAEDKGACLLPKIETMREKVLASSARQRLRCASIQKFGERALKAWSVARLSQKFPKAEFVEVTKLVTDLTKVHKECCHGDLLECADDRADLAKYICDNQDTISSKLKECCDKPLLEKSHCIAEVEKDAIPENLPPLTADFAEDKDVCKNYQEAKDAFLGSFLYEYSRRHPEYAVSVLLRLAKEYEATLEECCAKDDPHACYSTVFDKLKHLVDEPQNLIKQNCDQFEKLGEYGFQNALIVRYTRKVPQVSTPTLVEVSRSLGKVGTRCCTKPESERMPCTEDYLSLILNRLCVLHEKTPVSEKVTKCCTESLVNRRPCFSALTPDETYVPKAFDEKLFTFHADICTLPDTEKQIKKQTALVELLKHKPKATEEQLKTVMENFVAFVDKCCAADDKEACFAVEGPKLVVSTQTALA

B1: anti-AGR2 scFv clone 26 (scFv)
scFv: EVQLLESGGGLVQPGGSLRLSCAASGFTFSSYAMSWVRQAPGKGLEWVSSIQGQGRITRYADSVKGRFTISRDNSKNTLYLQMNSLRAEDTAVYYCAKRAIMFDYWGQGTLVTVSSGGGGSGGGGSGGGGSTDIQMTQSPSSLSASVGDRVTITCRASQSISSYLNWYQQKPGKAPKLLIYHASLLQSGVPSRFSGSGSGTDFTLTISSLQPEDFATYYCQQARYWPLTFGQGTKVEIK
[1]
  EC50: > 100 µg/mL

B2: human targeted AGR2xCD3 BiTE (anti-AGR2 scFv clone-15 linked to anti-CD3 scFv derived from Orthoclone OKT3) (bispecific antibody, part only; not given: anti-CD3 scFv, linker, His tag, not shown: small tags and cut ends)
chain, part: EVQLLESGGGLVQPGGSLRLSCAASGFTFSSYAMSWVRQAPGKGLEWVSGISAQGAHTTYADSVKGRFTISRDNSKNTLYLQMNSLRAEDTAVYYCAKTYKGFDYWGQGTLVTVSSGGGGSGGGGSGGGGSTDIQMTQSPSSLSASVGDRVTITCRASQSISSYLNWYQQKPGKAPKLLIYSASRLQSGVPSRFSGSGSGTDFTLTISSLQPEDFATYYCQQGRRMPPTFGQGTKVEIKEVQLLESGGGLVQPGGSLRLSCAASGFTFSSYAMSWVRQAPGKGLEWVSGISAQGAHTTYADSVKGRFTISRDNSKNTLYLQMNSLRAEDTAVYYCAKTYKGFDYWGQGTLVTVSSGGGGSGGGGSGGGGSTDIQMTQSPSSLSASVGDRVTITCRASQSISSYLNWYQQKPGKAPKLLIYSASRLQSGVPSRFSGSGSGTDFTLTISSLQPEDFATYYCQQGRRMPPTFGQGTKVEIK
[2]
  EC50 on Capan1 cell viability, BiTE alone (no PBMCs): 16.5 µM

B3: anti-AGR2 scFv clone-15 (scFv)
scFv: EVQLLESGGGLVQPGGSLRLSCAASGFTFSSYAMSWVRQAPGKGLEWVSGISAQGAHTTYADSVKGRFTISRDNSKNTLYLQMNSLRAEDTAVYYCAKTYKGFDYWGQGTLVTVSSGGGGSGGGGSGGGGSTDIQMTQSPSSLSASVGDRVTITCRASQSISSYLNWYQQKPGKAPKLLIYSASRLQSGVPSRFSGSGSGTDFTLTISSLQPEDFATYYCQQGRRMPPTFGQGTKVEIK
notes: Found by phage display, cloned into pET22b, produced and purified in BL21(DE3) E. coli; also called AGR2-scFv-15; scFv-15
[3]
  EC50 in the same TDCC assay (Capan1 cells with human PBMCs), scFv alone as comparator: 19.8 µM
[4]
  Kd: 0.179 µM
[5]
  Kd: 0.00157 µM
[6]
  Kd: 4.69 µg/mL
[7]
  binding result: no binding

B4: anti-AGR2 scFv clone 19 (scFv)
scFv: EVQLLESGGGLVQPGGSLRLSCAASGFTFSSYAMSWVRQAPGKGLEWVSAIASQGVATGYADSVKGRFTISRDNSKNTLYLQMNSLRAEDTAVYYCAKLDQHFDYWGQGTLVTVSSGGGGSGGGGSGGGGSTDIQMTQSPSSLSASVGDRVTITCRASQSISSYLNWYQQKPGKAPKLLIYQASRLQSGVPSRFSGSGSGTDFTLTISSLQPEDFATYYCQQARRLPLTFGQGTKVEIK
[1]
  EC50: > 100 µg/mL
